From patent publication US20260207704A1, “STAPLED PEPTIDES AND METHODS THEREOF” (priority 2022, published 2026) come the findings set out here.

Usually IC50 stands for the concentration needed to halve the response being measured.

*1 amine or outer side, *2 acyl side, *3 side chain or, on linkers, in order; H or OH if unused. Bridges are numbered along the chain shown (N, C = ends). Primed or numbered codes have the meaning given here. [ ]: non-standard residue; d: D form. B5(4) = 2-amino-2-(pent-4-en-1-yl)hept-6-enoic acid, stapled through each of its two olefin groups with other olefin-containing amino acid residues, O=C(C(CCCC=[*:3])(CCCC=[*:4])N[*:1])[*:2]; PyrS2″ = (S)-3-amino-1-((pent-4-en-1-yloxy)carbonyl)pyrrolidine-3-carboxylic acid (olefin stapling residue), C=CCCCOC(=O)N1CC[C@@](N[*:1])(C(=O)[*:2])C1; PyrS2(5) = (S)-3-amino-1-((pent-4-en-1-yloxy)carbonyl)pyrrolidine-3-carboxylic acid, C=CCCCOC(=O)N1CC[C@@](N[*:1])(C(=O)[*:2])C1; 2F3MeF(3) = aromatic amino acid residue, Cc1cccc(C[C@H](N[*:1])C(=O)[*:2])c1F; Phe(3-COOH) = N[C@@H](Cc1cccc(C(=O)O)c1)C(=O)O; 2F3MeF = Cc1cccc(C[C@H](N[*:1])C(=O)[*:2])c1F; Bta = N[C@@H](Cc1csc2ccccc12)C(=O)O; αAllylPro = C=CC[C@@]1(C(=O)O)CCCN1; BztA = aromatic amino acid residue; tBuAla = CC(C)(C)C[C@H](N)C(=O)O; 3Thi = N[C@@H](Cc1ccsc1)C(=O)O; Cha = N[C@@H](CC1CCCCC1)C(=O)O; PyrS2(4) = not defined here; hSer = N[C@@H](CCO)C(=O)O; TfeGA = not defined here; GlnR = not defined here; PL3 = not defined here; B5 = not defined here

The target of the assay is beta-catenin (human). As to the kind of experiment: fluorescence polarization.
Sequence of beta-catenin (human) (B6V8E6 146-665 limits assumed): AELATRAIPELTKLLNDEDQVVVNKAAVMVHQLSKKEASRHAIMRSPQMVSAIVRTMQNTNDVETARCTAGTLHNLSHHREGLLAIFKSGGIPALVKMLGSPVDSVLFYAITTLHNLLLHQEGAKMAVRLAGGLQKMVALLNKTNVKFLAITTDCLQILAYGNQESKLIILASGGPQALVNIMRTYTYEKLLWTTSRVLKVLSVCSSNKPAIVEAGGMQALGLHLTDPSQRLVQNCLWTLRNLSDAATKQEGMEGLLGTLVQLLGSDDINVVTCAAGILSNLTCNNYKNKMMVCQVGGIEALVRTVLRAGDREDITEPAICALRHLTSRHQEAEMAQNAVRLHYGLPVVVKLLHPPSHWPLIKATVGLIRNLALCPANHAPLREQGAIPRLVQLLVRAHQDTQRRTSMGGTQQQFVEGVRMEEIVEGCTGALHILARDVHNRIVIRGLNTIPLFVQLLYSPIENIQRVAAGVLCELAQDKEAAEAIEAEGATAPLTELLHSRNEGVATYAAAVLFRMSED

B1: I-108 (peptide)
peptide: Ac-[PL3]D[tBuAla][B5]D[Phe(3-COOH)][tBuAla]AFK[PyrS2(4)][2F3MeF][Bta][GlnR]L-NH2
modifications: staple 1-4; bridge 10-14; not fully specified (residue 10); printed as Ac-PL3-Asp-Npg-B5-Asp-3COOHF-Npg-Ala-Phe-Lys*3-PyrS2-2F3MeF-BztA-GlnR*3-Leu-NH2; reading uncertain; also: PyrS2 tied into a staple, partner not placed
As to B1, the half-maximal inhibitory concentration (IC50) is less than 50 nM.

B2: I-92 (peptide)
peptide: Ac-[αAllylPro]D[tBuAla][B5(4)]D[Phe(3-COOH)][GlnR]AFL[PyrS2(5)][2F3MeF(3)][BztA][GlnR](diaminobutane)A-NH2
modifications: staple 1-4 (inferred); not fully specified (bridges); printed as Ac-PL3-Asp-Npg-B5-Asp-3COOHF-GlnR-Ala-Phe-Leu-PyrS2-2F3MeF-BztA-[diaminobutane]GlnR-Ala-NH2; reading uncertain
B2 yielded an IC50 of less than 50 nM.

B3: I-98 (peptide)
peptide: Ac-[PL3]D[Cha][B5]D[Phe(3-COOH)]AAFK[PyrS2″][2F3MeF(3)][BztA][GlnR]A-NH2
modifications: staple 1-4 (inferred); bridge 10-14; not fully specified (residue 10, bridges); printed as Ac-PL3-Asp-Cha-B5-Asp-3COOHF-Ala-Ala-Phe-Lys*3-PyrS2-2F3MeF-BztA-GlnR*3-Ala-NH2; reading uncertain; also: Lys10 and GlnR14 marked *3
Take B3: the IC50 was less than 50 nM.

B4: I-2 (peptide)
peptide: Ac-[PL3]DL[B5(4)]DDAAF[dK][PyrS2″][3Thi][Bta][GlnR]-NH2
modifications: bridge 10-14; not fully specified (bridges); printed as Ac-PL3-Asp-Leu-B5-Asp-Asp-Ala-Ala-Phe-dLys*3-PyrS2-3Thi-BztA-GlnR*3-NH2; reading uncertain
Take B4: the IC50 is less than 50 nM.

B5: I-107 (peptide)
peptide: Ac-[PL3]D[Cha][B5]D[Phe(3-COOH)]AAFK[PyrS2(4)][2F3MeF][Bta][GlnR]L-NH2
modifications: staple 1-4; bridge 10-14; not fully specified (residue 10); printed as Ac-PL3-Asp-Cha-B5-Asp-3COOHF-Ala-Ala-Phe-Lys*3-PyrS2-2F3MeF-BztA-GlnR*3-Leu-NH2; reading uncertain; also: PyrS2 tied into a staple, partner not placed
For the molecule B5, the IC50 is less than 50 nM.

B6: I-112 (peptide)
peptide: Ac-[PL3]D[tBuAla][B5]D[TfeGA]AAFK[PyrS2(4)][2F3MeF][Bta][GlnR]A-NH2
modifications: staple 1-4; bridge 10-14; reading uncertain; also: PyrS2 tied into a staple, partner not placed
As to B6, the IC50 is less than 50 nM.

B7: I-113 (peptide)
peptide: Ac-[PL3]N[tBuAla][B5]D[TfeGA]AAFK[PyrS2(4)][2F3MeF][Bta][GlnR]A-NH2
modifications: staple 1-4; bridge 10-14; reading uncertain; also: PyrS2 tied into a staple, partner not placed
B7 showed an IC50 of less than 50 nM.

B8: I-105 (peptide)
peptide: Ac-[PL3]D[tBuAla][B5]D[Phe(3-COOH)]AAFK[PyrS2(4)][2F3MeF][Bta][GlnR]L-NH2
modifications: staple 1-4; bridge 10-14; not fully specified (residue 10); printed as Ac-PL3-Asp-Npg-B5-Asp-3COOHF-Ala-Ala-Phe-Lys*3-PyrS2-2F3MeF-BztA-GlnR*3-Leu-NH2; reading uncertain; also: PyrS2 tied into a staple, partner not placed
Consider B8, for which the IC50 was less than 50 nM.

B9: I-99 (peptide)
peptide: Ac-[PL3]D[tBuAla][B5]D[Phe(3-COOH)][tBuAla]AFK[PyrS2″][2F3MeF(3)][BztA][GlnR]A-NH2
modifications: staple 1-4 (inferred); bridge 10-14; not fully specified (residue 10, bridges); printed as Ac-PL3-Asp-Npg-B5-Asp-3COOHF-Npg-Ala-Phe-Lys*3-PyrS2-2F3MeF-BztA-GlnR*3-Ala-NH2; reading uncertain; also: Lys10 and GlnR14 marked *3
The molecule B9 displayed a half-inhibitory concentration (IC50) of less than 50 nM.

B10: I-116 (peptide)
peptide: Ac-[PL3][hSer][tBuAla][B5]D[TfeGA]AAFK[PyrS2(4)][2F3MeF][Bta][GlnR]A-NH2
modifications: staple 1-4; bridge 10-14; reading uncertain; also: PyrS2 tied into a staple, partner not placed
Turning to B10, the IC50 was greater than 1000 nM.

B11: I-115 (peptide)
peptide: Ac-[PL3][hSer][tBuAla][B5]D[TfeGA]AAFK[PyrS2(4)][2F3MeF][Bta][GlnR]A-NH2
modifications: staple 1-4; bridge 10-14; reading uncertain; also: PyrS2 tied into a staple, partner not placed
Molecule B11 showed an IC50 greater than 1000 nM.

B12: I-102 (peptide)
peptide: Ac-[PL3]D[tBuAla][B5]D[Phe(3-COOH)][Cha]AFK[PyrS2(4)][2F3MeF][Bta][GlnR]A-NH2
modifications: staple 1-4; bridge 10-14; not fully specified (residue 10); printed as Ac-PL3-Asp-Npg-B5-Asp-3COOHF-Cha-Ala-Phe-Lys*3-PyrS2-2F3MeF-BztA-GlnR*3-Ala-NH2; reading uncertain; also: PyrS2 tied into a staple, partner not placed
B12 had an IC50 of less than 50 nM.

B13: I-100 (peptide)
peptide: Ac-[PL3]D[tBuAla][B5]D[Phe(3-COOH)][tBuAla]AFK[PyrS2(4)][2F3MeF][Bta][GlnR]A-NH2
modifications: staple 1-4; bridge 10-14; not fully specified (residue 10); printed as Ac-PL3-Asp-Npg-B5-Asp-3COOHF-Npg-Ala-Phe-Lys*3-PyrS2-2F3MeF-BztA-GlnR*3-Ala-NH2; reading uncertain; also: PyrS2 tied into a staple, partner not placed
The molecule B13 displayed an IC50 of less than 50 nM.

B14: I-103 (peptide)
peptide: Ac-[PL3]D[Cha][B5]D[Phe(3-COOH)][Cha]AFK[PyrS2(4)][2F3MeF][Bta][GlnR]A-NH2
modifications: staple 1-4; bridge 10-14; not fully specified (residue 10); printed as Ac-PL3-Asp-Cha-B5-Asp-3COOHF-Cha-Ala-Phe-Lys*3-PyrS2-2F3MeF-BztA-GlnR*3-Ala-NH2; reading uncertain; also: PyrS2 tied into a staple, partner not placed
B14 yielded an IC50 of less than 50 nM.
